The text below walks through data of publication PMC3582507, “A Safeguard Mechanism Regulates Rho GTPases to Coordinate Cytokinesis with the Establishment of Cell Polarity” (PLoS Biology, 2013).

Substitutions are numbered along the chain they refer to. Names and notes keep the numbering of the source.

The test addresses T1, 6His-Gps1-1-290 (S. cerevisiae, UniProt Q99299 1-290).
T1 construct: Gps1, budding yeast, ORF YPL158C, amino acids 1-290; also called 6His-GPS1 (amino acids 1-290); source: E. coli BL21 (DE3), purified (Ni-NTA agarose)
T1 sequence (looked up): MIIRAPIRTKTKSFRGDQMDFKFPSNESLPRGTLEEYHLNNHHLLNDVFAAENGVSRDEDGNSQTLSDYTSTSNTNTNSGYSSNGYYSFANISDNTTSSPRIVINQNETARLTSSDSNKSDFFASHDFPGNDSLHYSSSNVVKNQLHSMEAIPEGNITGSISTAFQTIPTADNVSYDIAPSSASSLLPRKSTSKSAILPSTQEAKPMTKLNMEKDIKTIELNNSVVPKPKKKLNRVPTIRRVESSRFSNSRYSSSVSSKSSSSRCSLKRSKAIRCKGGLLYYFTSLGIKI
In words: pull-down; 6His-Gps1-1-290 bound to Ni-NTA agarose beads, incubated with GST or GST fusion proteins 1 h at 4°C in 50 mM Tris-HCl pH 7.4, 10% glycerol, 100 mM NaCl, 1 mM EDTA, 1 mM DTT, 0.5% NP-40; SDS-PAGE and Western blotting. The note with it: both partners purified.

B1: GST-Rho1 (natural protein, S. cerevisiae, UniProt P06780 1-209, looked up)
chain: MSQQVGNSIRRKLVIVGDGACGKTCLLIVFSKGQFPEVYVPTVFENYVADVEVDGRRVELALWDTAGQEDYDRLRPLSYPDSNVVLICFSIDLPDSLENVQEKWIAEVLHFCQGVPIILVGCKVDLRNDPQTIEQLRQEGQQPVTSQEGQSVADQIGATGYYECSAKTGYGVREVFEAATRASLMGKSKTNGKAKKNTTEKKKKKCVLL
notes: Rho1, Rho GTPase of budding yeast; source: E. coli BL21 (DE3), purified
For the molecule B1, the binding result is “binds”.

B2: GST-Rho1-G22A (natural protein, S. cerevisiae, UniProt P06780 1-209, looked up)
chain: B1 chain with G22A
notes: Rho1, Rho GTPase of budding yeast, nucleotide-locked mutant G22A; source: E. coli BL21 (DE3), purified
Consider B2, for which the binding result was “binds”.

B3: GST-Rho1-G19V (natural protein, S. cerevisiae, UniProt P06780 1-209, looked up)
chain: B1 chain with G19V
notes: Rho1, Rho GTPase of budding yeast, nucleotide-locked mutant G19V; source: E. coli BL21 (DE3), purified
Turning to B3, the binding result is recorded as “binds”.

B4: GST-Cdc42 (natural protein)
chain: not shown
notes: Cdc42, Rho GTPase of budding yeast; source: E. coli BL21 (DE3), purified
As to B4, the binding result was “binds”.

B5: GST-Cdc42-D57Y (natural protein)
chain: not shown
notes: Cdc42, Rho GTPase of budding yeast, nucleotide-locked mutant D57Y; source: E. coli BL21 (DE3), purified
With B5, the binding result is reported as “binds”.

B6: GST-Cdc42-Q61L (natural protein)
chain: not shown
notes: Cdc42, Rho GTPase of budding yeast, nucleotide-locked mutant Q61L; source: E. coli BL21 (DE3), purified
Turning to B6, the binding result was “binds”.
